The values that follow come from PMC5944921.

Assay [1] deals with GLA cross-linked soluble BG505 SOSIP trimer (GLA-SOSIP trimer) (HIV-1 BG505). Nature of the assay: ELISA; capture ELISA: plates coated with 4 ug/mL mAb 2G12, SOSIP or GLA-SOSIP trimer (0.2 ug/mL) captured, titration series of biotinylated mAbs or ligand; binding index = AUC on GLA-SOSIP trimer / AUC on SOSIP trimer.
Assay [2] has the same target. Nature of the assay: SPR; ProteOn XPR36, GLC chip with human antibody capture kit; 2G12 captured, then about 600 RU of trimer; dilution series of Fab passed over for 180 s, 600 s buffer; HBS-EP+ pH 7.4 with 1 mg/mL BSA; binding index = signal ratio GLA-SOSIP trimer / SOSIP trimer. On the technique in general: In SPR one partner is held on a chip, and binding of the other changes the refractive index at the surface.

PGT145 (mAb) (antibody) displayed a fold loss of binding against SOSIP trimer (ELISA binding index) in assay [1] of 3.3 fold. As for PGT145 Fab, the fold loss of binding against SOSIP trimer (SPR binding index) in assay [2] was 5.3 fold.
